Starred links: 1 amine or outer side, 2 acyl side, 3 side chain; linkers in the order of their positions; H or OH if unused. Non-standard residues stand in square brackets, D forms with d. *: point of attachment. dBip = N[C@H](Cc1ccc(-c2ccccc2)cc1)C(=O)O; Oic = O=C(O)[C@@H]1C[C@@H]2CCCC[C@@H]2N1; dPhe(4-Cl) = N[C@H](Cc1ccc(Cl)cc1)C(=O)O; Phe(4-I) = N[C@@H](Cc1ccc(I)cc1)C(=O)O; γGlu = O=C(O)[C@H](CCC(=O)[*:2])N[*:1]; d1Nal = N[C@H](Cc1cccc2ccccc12)C(=O)O; Tridecanoyl = CCCCCCCCCCCCC(=O)*; hArg = N=C(N)NCCCC[C@H](N)C(=O)O; NMeL = CN[C@@H](CC(C)C)C(=O)O; Tle = CC(C)(C)[C@H](N)C(=O)O; AEEA = NCCOCCOCC(=O)O; BLeu = β-leucine; βAla = NCCC(=O)O
T1: rat APJ receptor (rat, UniProt Q9JHG3 1-377)
T1 sequence (looked up): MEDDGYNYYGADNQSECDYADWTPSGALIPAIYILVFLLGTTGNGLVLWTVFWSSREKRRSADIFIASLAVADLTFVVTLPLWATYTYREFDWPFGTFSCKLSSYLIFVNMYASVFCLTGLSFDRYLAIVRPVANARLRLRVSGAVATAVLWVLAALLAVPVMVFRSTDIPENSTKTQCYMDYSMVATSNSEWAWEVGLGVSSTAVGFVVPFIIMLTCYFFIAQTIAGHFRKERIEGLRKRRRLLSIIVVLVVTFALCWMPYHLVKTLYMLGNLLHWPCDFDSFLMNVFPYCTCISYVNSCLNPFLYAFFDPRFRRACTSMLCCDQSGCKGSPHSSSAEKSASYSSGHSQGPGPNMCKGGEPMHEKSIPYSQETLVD

T2: human APJ receptor (human, UniProt P35414 1-380)
T2 sequence (looked up): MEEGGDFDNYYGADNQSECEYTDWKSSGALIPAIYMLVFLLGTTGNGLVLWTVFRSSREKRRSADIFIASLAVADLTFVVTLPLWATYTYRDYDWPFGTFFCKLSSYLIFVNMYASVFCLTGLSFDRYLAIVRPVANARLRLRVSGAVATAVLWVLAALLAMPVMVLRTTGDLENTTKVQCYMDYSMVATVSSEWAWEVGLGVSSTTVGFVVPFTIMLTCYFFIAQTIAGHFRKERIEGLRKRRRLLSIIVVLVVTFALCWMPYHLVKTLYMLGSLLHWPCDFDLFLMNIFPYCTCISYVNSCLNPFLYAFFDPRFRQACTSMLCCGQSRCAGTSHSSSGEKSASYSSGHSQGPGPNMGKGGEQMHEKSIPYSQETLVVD


Tests used:
rat APJ receptor = biological target: T1, rat APJ receptor; experiment: cell-based or functional assay
human APJ receptor = biological target: T2, human APJ receptor; experiment: cell-based or functional assay

| Binder | EC50 Rat APJ Receptor (rat APJ receptor) [nM] | EC50 Human APJ Receptor (human APJ receptor) [nM] |
| --- | --- | --- |
| Tridecanoyl-[γGlu][AEEA][AEEA]RQRP[dR][NMeL]SHKG[Oic][Phe(4-I)]P[dBip]-OH (SMILES CCCCCCCCCCCCC(=O)N[C@@H](CCC(=O)NCCOCCOCC(=O)NCCOCCOCC(=O)N[C@@H](CCCNC(=N)N)C(=O)N[C@@H](CCC(N)=O)C(=O)N[C@@H](CCCNC(=N)N)C(=O)N1CCC[C@H]1C(=O)N[C@H](CCCNC(=N)N)C(=O)N(C)[C@@H](CC(C)C)C(=O)N[C@@H](CO)C(=O)N[C@@H](Cc1c[nH]cn1)C(=O)N[C@@H](CCCCN)C(=O)NCC(=O)N1[C@H](C(=O)N[C@@H](Cc2ccc(I)cc2)C(=O)N2CCC[C@H]2C(=O)N[C@H](Cc2ccc(-c3ccccc3)cc2)C(=O)O)C[C@@H]2CCCC[C@@H]21)C(=O)O) [apelin polypeptide SEQ ID NO: 211] | 6.29 | 1.9 |
| Tridecanoyl-[γGlu][AEEA][AEEA][hArg]Q[dR]P[dR][NMeL]SHKG[Oic][Phe(4-I)][dBip]-OH (SMILES CCCCCCCCCCCCC(=O)N[C@@H](CCC(=O)NCCOCCOCC(=O)NCCOCCOCC(=O)N[C@@H](CCCCNC(=N)N)C(=O)N[C@@H](CCC(N)=O)C(=O)N[C@H](CCCNC(=N)N)C(=O)N1CCC[C@H]1C(=O)N[C@H](CCCNC(=N)N)C(=O)N(C)[C@@H](CC(C)C)C(=O)N[C@@H](CO)C(=O)N[C@@H](Cc1c[nH]cn1)C(=O)N[C@@H](CCCCN)C(=O)NCC(=O)N1[C@H](C(=O)N[C@@H](Cc2ccc(I)cc2)C(=O)N[C@H](Cc2ccc(-c3ccccc3)cc2)C(=O)O)C[C@@H]2CCCC[C@@H]21)C(=O)O) [apelin polypeptide SEQ ID NO: 175] | 8.54 | 1.32 |
| Tridecanoyl-[γGlu][AEEA][AEEA][hArg][dQ][hArg]P[dR][NMeL][βAla]HKG[Oic][Phe(4-I)]P[dBip]-OH (SMILES CCCCCCCCCCCCC(=O)N[C@@H](CCC(=O)NCCOCCOCC(=O)NCCOCCOCC(=O)N[C@@H](CCCCNC(=N)N)C(=O)N[C@H](CCC(N)=O)C(=O)N[C@@H](CCCCNC(=N)N)C(=O)N1CCC[C@H]1C(=O)N[C@H](CCCNC(=N)N)C(=O)N(C)[C@@H](CC(C)C)C(=O)NCCC(=O)N[C@@H](Cc1c[nH]cn1)C(=O)N[C@@H](CCCCN)C(=O)NCC(=O)N1[C@H](C(=O)N[C@@H](Cc2ccc(I)cc2)C(=O)N2CCC[C@H]2C(=O)N[C@H](Cc2ccc(-c3ccccc3)cc2)C(=O)O)C[C@@H]2CCCC[C@@H]21)C(=O)O) [apelin polypeptide SEQ ID NO: 208] | 104 | 28.9 |
| Tridecanoyl-[γGlu][AEEA][AEEA][hArg][dQ][hArg]P[dR][NMeL]SHKG[Oic][Phe(4-I)][dBip]-OH (SMILES CCCCCCCCCCCCC(=O)N[C@@H](CCC(=O)NCCOCCOCC(=O)NCCOCCOCC(=O)N[C@@H](CCCCNC(=N)N)C(=O)N[C@H](CCC(N)=O)C(=O)N[C@@H](CCCCNC(=N)N)C(=O)N1CCC[C@H]1C(=O)N[C@H](CCCNC(=N)N)C(=O)N(C)[C@@H](CC(C)C)C(=O)N[C@@H](CO)C(=O)N[C@@H](Cc1c[nH]cn1)C(=O)N[C@@H](CCCCN)C(=O)NCC(=O)N1[C@H](C(=O)N[C@@H](Cc2ccc(I)cc2)C(=O)N[C@H](Cc2ccc(-c3ccccc3)cc2)C(=O)O)C[C@@H]2CCCC[C@@H]21)C(=O)O) [apelin polypeptide SEQ ID NO: 174] | 16.5 | 3.6 |
| Tridecanoyl-[γGlu][AEEA][AEEA][hArg][dQ][hArg]P[dR][BLeu]SHKG[Oic][Phe(4-I)]P[dBip]-OH [apelin polypeptide SEQ ID NO: 180] | 27.3 | 10 |
| Tridecanoyl-[γGlu][AEEA][AEEA][dR]Q[hArg]P[dR][NMeL]SHKG[Oic][Phe(4-I)]P[d1Nal]-OH (SMILES CCCCCCCCCCCCC(=O)N[C@@H](CCC(=O)NCCOCCOCC(=O)NCCOCCOCC(=O)N[C@H](CCCNC(=N)N)C(=O)N[C@@H](CCC(N)=O)C(=O)N[C@@H](CCCCNC(=N)N)C(=O)N1CCC[C@H]1C(=O)N[C@H](CCCNC(=N)N)C(=O)N(C)[C@@H](CC(C)C)C(=O)N[C@@H](CO)C(=O)N[C@@H](Cc1c[nH]cn1)C(=O)N[C@@H](CCCCN)C(=O)NCC(=O)N1[C@H](C(=O)N[C@@H](Cc2ccc(I)cc2)C(=O)N2CCC[C@H]2C(=O)N[C@H](Cc2cccc3ccccc23)C(=O)O)C[C@@H]2CCCC[C@@H]21)C(=O)O) [apelin polypeptide SEQ ID NO: 155] | 49.6 | 8.62 |
| Tridecanoyl-[γGlu][AEEA][AEEA][dR]Q[hArg]P[dR][NMeL]SHKG[Oic][Phe(4-I)][dBip]-OH (SMILES CCCCCCCCCCCCC(=O)N[C@@H](CCC(=O)NCCOCCOCC(=O)NCCOCCOCC(=O)N[C@H](CCCNC(=N)N)C(=O)N[C@@H](CCC(N)=O)C(=O)N[C@@H](CCCCNC(=N)N)C(=O)N1CCC[C@H]1C(=O)N[C@H](CCCNC(=N)N)C(=O)N(C)[C@@H](CC(C)C)C(=O)N[C@@H](CO)C(=O)N[C@@H](Cc1c[nH]cn1)C(=O)N[C@@H](CCCCN)C(=O)NCC(=O)N1[C@H](C(=O)N[C@@H](Cc2ccc(I)cc2)C(=O)N[C@H](Cc2ccc(-c3ccccc3)cc2)C(=O)O)C[C@@H]2CCCC[C@@H]21)C(=O)O) [apelin polypeptide SEQ ID NO: 173] | 13.7 | 1.66 |

Further lines, results first:

| EC50 Rat APJ Receptor (rat APJ receptor) [nM] | EC50 Human APJ Receptor (human APJ receptor) [nM] | Binder |
| --- | --- | --- |
| 32.4 | 8.48 | Tridecanoyl-[γGlu][AEEA][AEEA][hArg][dQ][hArg]P[dR][NMeL]SAKG[Oic][Phe(4-I)]P[dBip]-OH (SMILES CCCCCCCCCCCCC(=O)N[C@@H](CCC(=O)NCCOCCOCC(=O)NCCOCCOCC(=O)N[C@@H](CCCCNC(=N)N)C(=O)N[C@H](CCC(N)=O)C(=O)N[C@@H](CCCCNC(=N)N)C(=O)N1CCC[C@H]1C(=O)N[C@H](CCCNC(=N)N)C(=O)N(C)[C@@H](CC(C)C)C(=O)N[C@@H](CO)C(=O)N[C@@H](C)C(=O)N[C@@H](CCCCN)C(=O)NCC(=O)N1[C@H](C(=O)N[C@@H](Cc2ccc(I)cc2)C(=O)N2CCC[C@H]2C(=O)N[C@H](Cc2ccc(-c3ccccc3)cc2)C(=O)O)C[C@@H]2CCCC[C@@H]21)C(=O)O) [apelin polypeptide SEQ ID NO: 199] |
| 182 | 49.4 | Tridecanoyl-[γGlu][AEEA][AEEA][hArg][dQ][hArg]P[dR][NMeL]S[Tle]KG[Oic][Phe(4-I)]P[dBip]-OH (SMILES CCCCCCCCCCCCC(=O)N[C@@H](CCC(=O)NCCOCCOCC(=O)NCCOCCOCC(=O)N[C@@H](CCCCNC(=N)N)C(=O)N[C@H](CCC(N)=O)C(=O)N[C@@H](CCCCNC(=N)N)C(=O)N1CCC[C@H]1C(=O)N[C@H](CCCNC(=N)N)C(=O)N(C)[C@@H](CC(C)C)C(=O)N[C@@H](CO)C(=O)N[C@H](C(=O)N[C@@H](CCCCN)C(=O)NCC(=O)N1[C@H](C(=O)N[C@@H](Cc2ccc(I)cc2)C(=O)N2CCC[C@H]2C(=O)N[C@H](Cc2ccc(-c3ccccc3)cc2)C(=O)O)C[C@@H]2CCCC[C@@H]21)C(C)(C)C)C(=O)O) [apelin polypeptide SEQ ID NO: 201] |
| 0.729 | 0.375 | Ac-[hArg][dR]Q[hArg]P[dR][NMeL]SHKG[Oic][Phe(4-I)]P[dBip]-OH (SMILES CC(=O)N[C@@H](CCCCNC(=N)N)C(=O)N[C@H](CCCNC(=N)N)C(=O)N[C@@H](CCC(N)=O)C(=O)N[C@@H](CCCCNC(=N)N)C(=O)N1CCC[C@H]1C(=O)N[C@H](CCCNC(=N)N)C(=O)N(C)[C@@H](CC(C)C)C(=O)N[C@@H](CO)C(=O)N[C@@H](Cc1c[nH]cn1)C(=O)N[C@@H](CCCCN)C(=O)NCC(=O)N1[C@H](C(=O)N[C@@H](Cc2ccc(I)cc2)C(=O)N2CCC[C@H]2C(=O)N[C@H](Cc2ccc(-c3ccccc3)cc2)C(=O)O)C[C@@H]2CCCC[C@@H]21) [apelin polypeptide SEQ ID NO: 16] |
| 40.5 | 4.54 | Tridecanoyl-[γGlu][AEEA][AEEA][dR]Q[hArg]P[dR][NMeL]SHKG[Oic][Phe(4-I)]P[dPhe(4-Cl)]-OH (SMILES CCCCCCCCCCCCC(=O)N[C@@H](CCC(=O)NCCOCCOCC(=O)NCCOCCOCC(=O)N[C@H](CCCNC(=N)N)C(=O)N[C@@H](CCC(N)=O)C(=O)N[C@@H](CCCCNC(=N)N)C(=O)N1CCC[C@H]1C(=O)N[C@H](CCCNC(=N)N)C(=O)N(C)[C@@H](CC(C)C)C(=O)N[C@@H](CO)C(=O)N[C@@H](Cc1c[nH]cn1)C(=O)N[C@@H](CCCCN)C(=O)NCC(=O)N1[C@H](C(=O)N[C@@H](Cc2ccc(I)cc2)C(=O)N2CCC[C@H]2C(=O)N[C@H](Cc2ccc(Cl)cc2)C(=O)O)C[C@@H]2CCCC[C@@H]21)C(=O)O) [apelin polypeptide SEQ ID NO: 154] |

From patent publication US10941182 (Amgen, dated 2021)
